Assay [1] addresses GST-DHX9 (human) (UniProt Q08211).
The target of assay [2] is T1, GST-Nup98^1–863 (human, UniProt P52948-4 1-863).
T1 construct: Nup98, human, residues 1-863; Held on glutathione magnetic agarose beads by its GST; also called GST-Nup98 (bead halo bait); source: purified recombinant protein (E. coli BL21-CodonPlus(DE3), glutathione-Sepharose 4B)
T1 sequence (looked up): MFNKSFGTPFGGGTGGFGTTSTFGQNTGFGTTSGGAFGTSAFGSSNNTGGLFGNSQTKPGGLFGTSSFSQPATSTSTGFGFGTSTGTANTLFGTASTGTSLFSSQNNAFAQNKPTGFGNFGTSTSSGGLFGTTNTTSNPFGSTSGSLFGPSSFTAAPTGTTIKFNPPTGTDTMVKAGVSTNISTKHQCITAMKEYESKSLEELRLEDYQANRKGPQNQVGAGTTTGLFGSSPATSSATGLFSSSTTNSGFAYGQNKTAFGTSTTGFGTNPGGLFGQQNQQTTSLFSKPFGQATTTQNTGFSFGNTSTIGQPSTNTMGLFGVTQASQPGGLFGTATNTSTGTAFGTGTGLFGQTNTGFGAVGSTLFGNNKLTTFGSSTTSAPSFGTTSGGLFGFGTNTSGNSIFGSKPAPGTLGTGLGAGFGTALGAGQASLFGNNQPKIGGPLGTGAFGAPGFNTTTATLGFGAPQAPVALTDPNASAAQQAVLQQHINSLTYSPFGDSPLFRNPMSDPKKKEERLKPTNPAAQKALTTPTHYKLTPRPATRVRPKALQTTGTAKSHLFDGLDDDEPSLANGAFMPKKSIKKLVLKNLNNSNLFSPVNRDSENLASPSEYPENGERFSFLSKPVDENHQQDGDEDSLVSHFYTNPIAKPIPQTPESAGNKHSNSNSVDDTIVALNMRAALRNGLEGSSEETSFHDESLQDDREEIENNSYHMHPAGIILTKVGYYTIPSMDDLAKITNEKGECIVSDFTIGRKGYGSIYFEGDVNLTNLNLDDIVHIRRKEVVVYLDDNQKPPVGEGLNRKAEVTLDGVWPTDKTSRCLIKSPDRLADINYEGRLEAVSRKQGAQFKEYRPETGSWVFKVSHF
Kind of assay: bead halo assay; GST-Nup98 1-863 held on glutathione magnetic agarose beads (bait); DHX9 domains with C-terminal eGFP (prey) detected by fluorescence microscopy; PBS-T, 10 min, 4 °C; pre-treated with RNase A, poly I:C RNA or buffer alone. The conditions noted are these: both partners purified.

In the case of “GST-Nup98^1–920 (from UniProt P52948-4 1-920) (natural protein)”, in assay [1], the ATPase activity (ATP hydrolysis rate) of GST-DHX9 with excess RNA (poly I:C) and increasing concentrations of GST-Nup98 is 5 fold.

B1: DHX9 821–1270 tagged with eGFP (domain or fragment, human, UniProt Q08211 821-1270, looked up)
chain: IEPPPLDAVIEAEHTLRELDALDANDELTPLGRILAKLPIEPRFGKMMIMGCIFYVGDAICTIAAATCFPEPFINEGKRLGYIHRNFAGNRFSDHVALLSVFQAWDDARMGGEEAEIRFCEHKRLNMATLRMTWEAKVQLKEILINSGFPEDCLLTQVFTNTGPDNNLDVVISLLAFGVYPNVCYHKEKRKILTTEGRNALIHKSSVNCPFSSQDMKYPSPFFVFGEKIRTRAISAKGMTLVTPLQLLLFASKKVQSDGQIVLVDDWIKLQISHEAAACITGLRAAMEALVVEVTKQPAIISQLDPVNERMLNMIRQISRPSAAGINLMIGSTRYGDGPRPPKMARYDNGSGYRRGGSSYSGGGYGGGYSSGGYGSGGYGGSANSFRAGYGAGVGGGYRGVSRGGFRGNSGGDYRGPSGGYRGSGGFQRGGGRGAYGTGYFGQGRGGGGY
notes: also called C-terminal segment (residues 821–1270); C-terminal domain of DHX9-GFP; source: purified recombinant protein; not shown: eGFP, C-terminal, kept
Take B1: in assay [2], the binding result was “binds”.

B2: DHX9 1–380 tagged with eGFP (domain or fragment, human, UniProt Q08211 1-380, looked up)
chain: MGDVKNFLYAWCGKRKMTPSYEIRAVGNKNRQKFMCEVQVEGYNYTGMGNSTNKKDAQSNAARDFVNYLVRINEIKSEEVPAFGVASPPPLTDTPDTTANAEGDLPTTMGGPLPPHLALKAENNSEVGASGYGVPGPTWDRGANLKDYYSRKEEQEVQATLESEEVDLNAGLHGNWTLENAKARLNQYFQKEKIQGEYKYTQVGPDHNRSFIAEMTIYIKQLGRRIFAREHGSNKKLAAQSCALSLVRQLYHLGVVEAYSGLTKKKEGETVEPYKVNLSQDLEHQLQNIIQELNLEILPPPEDPSVPVALNIGKLAQFEPSQRQNQVGVVPWSPPQSNWNPWTSSNIDEGPLAFATPEQISMDLKNELMYQLEQDHDLQA
notes: also called N-terminal region (residues 1–380); N-terminal domain of DHX9-GFP; source: purified recombinant protein; not shown: eGFP, C-terminal, kept
Consider B2, for which, in assay [2], the binding result was “binds”.

The values above are taken from article PMC5338925, “Human Nup98 regulates the localization and activity of DExH/D-box helicase DHX9” (eLife, 2017).
